# Results published in patent publication US20250313633A1.
# Experiments:
# [1] = molecular target: cynomolgus monkey B7H3 on transfected FlpinCHO cells (W3XX088-FlpinCHO.cProl.pool) (cynomolgus monkey); assay: FACS on cynomolgus monkey B7H3-transfected FlpinCHO cell pool; negative control
# [2] = molecular target: human full-length B7H3 on MCF-7 cells (human) (UniProt Q5ZPR3); assay: cell-based or functional assay
# [3] = molecular target: human full-length B7H3 on MCF-7 cells (human) (UniProt Q5ZPR3); assay: FACS on MCF-7 cells; negative control
# human full-length B7H3 on MCF-7 cells (human), sequence (Q5ZPR3 29-534): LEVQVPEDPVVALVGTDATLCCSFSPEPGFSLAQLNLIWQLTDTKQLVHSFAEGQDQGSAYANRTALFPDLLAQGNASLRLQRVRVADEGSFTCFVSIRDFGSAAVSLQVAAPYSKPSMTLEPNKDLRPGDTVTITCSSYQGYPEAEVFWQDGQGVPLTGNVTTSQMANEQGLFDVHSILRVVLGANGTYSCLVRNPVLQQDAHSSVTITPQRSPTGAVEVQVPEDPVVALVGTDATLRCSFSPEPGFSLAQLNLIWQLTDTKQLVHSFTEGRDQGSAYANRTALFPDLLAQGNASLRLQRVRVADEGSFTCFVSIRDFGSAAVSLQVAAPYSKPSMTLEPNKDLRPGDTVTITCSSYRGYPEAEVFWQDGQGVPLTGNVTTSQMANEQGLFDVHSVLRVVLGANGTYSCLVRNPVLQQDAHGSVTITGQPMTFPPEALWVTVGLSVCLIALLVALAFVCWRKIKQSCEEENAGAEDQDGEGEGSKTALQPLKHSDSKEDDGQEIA
substance,measurement,setting,value
Human IgG1 isotype antibody,Max MFI,[1],6.67 MFI
same,"Internalization on MCF-7, Max MFI",[2],21 MFI
same,Max MFI,[3],47.8 MFI
